Experimental findings from US20050032189A1 (published 2005) are described below.

For this experiment, the target named is T1, Vitronectin receptor, αVβ3 integrin, localized on the HUVEC surface (human, UniProt P06756 31-1048; P05106 27-788).
T1 construct: whole, on cells; Present on bFGF-stimulated HUVEC in the cell adhesion assay; also called integrin αVβ3
Kind of experiment: HUVEC adhesion assay on Saxatilin- and Vitronectin-coated plates.

T1 sequence (P06756 31-1048, chain 1 of 2): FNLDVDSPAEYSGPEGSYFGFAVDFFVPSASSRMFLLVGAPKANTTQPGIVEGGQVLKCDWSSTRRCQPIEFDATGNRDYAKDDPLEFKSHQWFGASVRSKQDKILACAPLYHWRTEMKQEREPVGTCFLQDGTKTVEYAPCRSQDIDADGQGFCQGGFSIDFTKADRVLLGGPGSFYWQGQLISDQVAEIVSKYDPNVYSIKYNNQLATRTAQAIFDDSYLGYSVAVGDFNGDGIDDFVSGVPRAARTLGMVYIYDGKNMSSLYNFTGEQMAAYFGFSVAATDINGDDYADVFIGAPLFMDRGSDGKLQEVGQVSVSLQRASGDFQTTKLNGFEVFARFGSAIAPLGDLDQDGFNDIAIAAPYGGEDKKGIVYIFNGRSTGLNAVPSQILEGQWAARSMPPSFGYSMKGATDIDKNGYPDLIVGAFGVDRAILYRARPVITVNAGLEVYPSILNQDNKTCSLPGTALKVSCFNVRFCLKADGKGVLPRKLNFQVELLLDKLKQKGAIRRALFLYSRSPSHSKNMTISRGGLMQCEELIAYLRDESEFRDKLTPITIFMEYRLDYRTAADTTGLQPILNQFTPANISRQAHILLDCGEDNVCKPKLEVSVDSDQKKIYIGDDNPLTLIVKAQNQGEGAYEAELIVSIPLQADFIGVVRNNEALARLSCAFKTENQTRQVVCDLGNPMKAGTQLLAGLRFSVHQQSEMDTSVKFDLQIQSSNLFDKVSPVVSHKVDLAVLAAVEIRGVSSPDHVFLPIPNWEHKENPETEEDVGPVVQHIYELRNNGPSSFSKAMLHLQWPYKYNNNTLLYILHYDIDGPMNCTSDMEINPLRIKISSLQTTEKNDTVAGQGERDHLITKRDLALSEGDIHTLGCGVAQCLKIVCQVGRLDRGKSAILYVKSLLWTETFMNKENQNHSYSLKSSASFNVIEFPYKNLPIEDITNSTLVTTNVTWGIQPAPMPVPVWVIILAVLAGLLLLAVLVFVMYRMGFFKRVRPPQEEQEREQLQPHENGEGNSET
T1 sequence (P05106 27-788, chain 2 of 2): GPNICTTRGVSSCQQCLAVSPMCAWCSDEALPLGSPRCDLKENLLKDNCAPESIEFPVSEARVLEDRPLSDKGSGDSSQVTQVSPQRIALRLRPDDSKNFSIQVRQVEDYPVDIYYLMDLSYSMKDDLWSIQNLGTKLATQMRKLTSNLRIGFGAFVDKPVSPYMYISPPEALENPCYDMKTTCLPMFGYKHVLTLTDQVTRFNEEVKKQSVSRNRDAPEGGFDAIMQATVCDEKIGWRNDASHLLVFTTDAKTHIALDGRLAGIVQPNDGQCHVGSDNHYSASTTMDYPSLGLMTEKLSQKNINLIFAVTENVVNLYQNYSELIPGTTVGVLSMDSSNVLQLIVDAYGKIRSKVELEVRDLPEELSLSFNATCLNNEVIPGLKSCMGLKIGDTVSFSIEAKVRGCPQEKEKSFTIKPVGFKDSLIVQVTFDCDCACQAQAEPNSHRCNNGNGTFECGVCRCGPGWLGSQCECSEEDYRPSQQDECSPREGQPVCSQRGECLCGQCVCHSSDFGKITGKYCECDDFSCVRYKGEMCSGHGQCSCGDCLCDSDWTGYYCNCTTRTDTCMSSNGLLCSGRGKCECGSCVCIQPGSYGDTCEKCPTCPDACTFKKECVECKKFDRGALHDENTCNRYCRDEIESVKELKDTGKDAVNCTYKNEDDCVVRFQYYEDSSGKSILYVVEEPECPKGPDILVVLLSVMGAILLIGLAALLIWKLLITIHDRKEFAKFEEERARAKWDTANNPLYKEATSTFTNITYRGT

B1: recombinant Saxatilin (ligand)
chain: EAGEECDCGAPANPCCDAATCKLRPGAQCAEGLCCDQCRFMKEGTICRMARGDDMDDYCNGISAGCPRNPFHA
Regarding B1, the binding result is listed as “binds”.
